This note sets out measurements from patent US20250084179A1 (Xencor, published 2025).

In general, koff refers to the rate constant with which the complex falls apart. Higher therefore signals a short-lived complex. A word on the kon: it is the rate constant with which the complex forms. A higher kon goes with faster complex formation.

The labels stand for the following.
T1: TROP2 (UniProt P09758 27-274, limits assumed)
T1 construct: also called tumor-associated calcium signal transducer 2; TACSTD2
T1 sequence (looked up): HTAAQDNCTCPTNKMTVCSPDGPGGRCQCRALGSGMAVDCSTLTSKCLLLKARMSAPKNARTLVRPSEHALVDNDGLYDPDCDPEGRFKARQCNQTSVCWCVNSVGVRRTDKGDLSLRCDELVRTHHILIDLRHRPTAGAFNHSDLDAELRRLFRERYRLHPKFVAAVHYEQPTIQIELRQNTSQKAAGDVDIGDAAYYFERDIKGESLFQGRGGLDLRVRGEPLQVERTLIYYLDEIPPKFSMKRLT

T2: Cyno TROP2 (Macaca fascicularis, UniProt A0A2K5UE71)
T2 construct: Construct used in the measurement is not described; also called cynomolgus TROP2
T2 sequence (antigen): T1 sequence (looked up) with M36V, K46E, S67N, I204V

B1: 1F11-1A3.315[Trop2]_H1.1_L1 (antibody, V domains shown)
VH: QVQLVQSGAEVKKPGASVKVSCKASGYTLTRYYMHWVRQAPGQGLEWMGIINPGGGSTGYAQKFQGRVTMTRDTSTSTVYMELSSLRSEDTAVYYCARDDVVAADVFDYWGQGTLVTVSS
VL: not shown
B2: 1F11-1A3.315[Trop2]_H1.25_L1 (antibody, V domains shown)
VH: B1 VH with L29F, G59L
VL: not shown
B3: 1F11-1A3.315[Trop2]_H1.3_L1 (antibody, V domains shown)
VH: B1 VH with L29F, G59T
VL: not shown
B4: 1F11-1A3.315[Trop2]_H1.26_L1 (antibody, V domains shown)
VH: B1 VH with L29F, V102M
VL: not shown
B5: 1F11-1A3.315[Trop2]_H1.20_L1 (antibody, V domains shown)
VH: B1 VH with N52E, G59S, V102T
VL: not shown
B6: 1F11-1A3.315[Trop2]_H1.4_L1 (antibody, V domains shown)
VH: B1 VH with L29F, V102T
VL: not shown
B7: 1F11-1A3.315[Trop2]_H1.2_L1 (antibody, V domains shown)
VH: B1 VH with L29F, N52E
VL: not shown
B8: 1F11-1A3.315[Trop2]_H1.6_L1 (antibody, V domains shown)
VH: B1 VH with N52E
VL: not shown
B9: 1F11-1A3.315[Trop2]_H1.12_L1 (antibody, V domains shown)
VH: B1 VH with L29F, N52E, A103K
VL: not shown
B10: 1F11-1A3.315[Trop2]_H1.23_L1 (antibody, V domains shown)
VH: B1 VH with L29F, M34V
VL: not shown
B11: 1F11-1A3.315[Trop2]_H1.9_L1 (antibody, V domains shown)
VH: B1 VH with A103K
VL: not shown
B12: 1F11-1A3.315[Trop2]_H1.14_L1 (antibody, V domains shown)
VH: B1 VH with L29F, G59T, A103K
VL: not shown
B13: 1F11-1A3.315[Trop2]_H1.18_L1 (antibody, V domains shown)
VH: B1 VH with N52E, G59T, V102T
VL: not shown
B14: 1F11-1A3.315[Trop2]_H1.15_L1 (antibody, V domains shown)
VH: B1 VH with L29F, V102T, A103K
VL: not shown
B15: 1F11-1A3.315[Trop2]_H1.5_L1 (antibody, V domains shown)
VH: B1 VH with L29F, A103K
VL: not shown
B16: 1F11-1A3.315[Trop2]_H1.17_L1 (antibody, V domains shown)
VH: B1 VH with N52E, A103K
VL: not shown
B17: 1F11-1A3.315[Trop2]_H1.7_L1 (antibody, V domains shown)
VH: B1 VH with G59T
VL: not shown
B18: 1F11-1A3.315[Trop2]_H1.11_L1 (antibody, V domains shown)
VH: B1 VH with L29F, N52E, V102T
VL: not shown
B19: 1F11-1A3.315[Trop2]_H1.8_L1 (antibody, V domains shown)
VH: B1 VH with V102T
VL: not shown
B20: 1F11-1A3.315[Trop2]_H1.22_L1 (antibody, V domains shown)
VH: B1 VH with N52E, G59S, V102T, A103K
VL: not shown
B21: 1F11-1A3.315[Trop2]_H1.16_L1 (antibody, V domains shown)
VH: B1 VH with N52E, V102T
VL: not shown
B22: 1F11-1A3.315[Trop2]_H1.27_L1 (antibody, V domains shown)
VH: B1 VH with N52E, G59D, V102T
VL: not shown
B23: 1F11-1A3.315[Trop2]_H1.13_L1 (antibody, V domains shown)
VH: B1 VH with L29F, G59T, V102T
VL: not shown
B24: 1F11-1A3.315[Trop2]_H1.24_L1 (antibody, V domains shown)
VH: B1 VH with L29F, G59D
VL: not shown
B25: 1F11-1A3.315[Trop2]_H1.21_L1 (antibody, V domains shown)
VH: B1 VH with N52E, G59S, A103K
VL: not shown

Where a chain is given by its changes, count along the chain named.

The target of the first assay is T1, TROP2. The assay is described as follows: not stated; bivalent format.
B1: the Kd amounted to 2 nM, the koff came out at 0.00048 s⁻¹ and the kon stood at 240000 M⁻¹ s⁻¹.

Regarding B2, the Kd is 8.5 nM, the koff was 0.0014 s⁻¹ and the kon is 170000 M⁻¹ s⁻¹.

On to B3, for which the Kd was determined as 6 nM, the koff amounted to 0.0012 s⁻¹ and the kon worked out at 200000 M⁻¹ s⁻¹.

As to B4, the Kd came out at 4.6 nM, the koff amounted to 0.00088 s⁻¹ and the kon was found to be 190000 M⁻¹ s⁻¹.

As to B5, the Kd is 1.1 nM, the koff is 0.00035 s⁻¹ and the kon was 320000 M⁻¹ s⁻¹.

In the case of B6, the Kd stood at 6.7 nM, the koff is 0.0011 s⁻¹ and the kon is 180000 M⁻¹ s⁻¹.

B7 showed a Kd of 2 nM, a koff of 0.00047 s⁻¹ and a kon of 250000 M⁻¹ s⁻¹.

For the molecule B8, the Kd was determined as 0.77 nM, the koff is 0.00025 s⁻¹ and the on-rate constant (kon) is 320000 M⁻¹ s⁻¹.

In turn, B9 showed a Kd of 1.3 nM, an off-rate constant (koff) of 0.00033 s⁻¹ and a kon of 270000 M⁻¹ s⁻¹.

B10 registered a Kd of 7.2 nM, a koff of 0.0012 s⁻¹ and a kon of 170000 M⁻¹ s⁻¹.

In the case of B11, the Kd was found to be 1.7 nM, the koff worked out at 0.0004 s⁻¹ and the kon came out at 240000 M⁻¹ s⁻¹.

Take B12: the Kd worked out at 2.6 nM, the koff was determined as 0.00077 s⁻¹ and the kon is 290000 M⁻¹ s⁻¹.

Consider B13, for which the Kd came out at 0.66 nM, the koff is 0.0002 s⁻¹ and the kon worked out at 320000 M⁻¹ s⁻¹.

Take B14: the Kd was 4.1 nM, the koff was 0.00091 s⁻¹ and the on-rate (kon) is 230000 M⁻¹ s⁻¹.

With B15, the Kd came to 3.4 nM, the koff is 0.00081 s⁻¹ and the kon is 240000 M⁻¹ s⁻¹.

B16 registered a Kd of 0.62 nM, a koff of 0.00017 s⁻¹ and a kon of 270000 M⁻¹ s⁻¹.

Regarding B17, the Kd was 1.9 nM, the koff worked out at 0.00053 s⁻¹ and the kon came out at 280000 M⁻¹ s⁻¹.

In the case of B18, the Kd was determined as 1.5 nM, the koff turned out to be 0.00051 s⁻¹ and the kon turned out to be 340000 M⁻¹ s⁻¹.

With B19, the Kd is 2.7 nM, the koff worked out at 0.0006 s⁻¹ and the kon came out at 230000 M⁻¹ s⁻¹.

Molecule B20 yielded a Kd of 0.55 nM, a koff of 0.00021 s⁻¹ and a kon of 380000 M⁻¹ s⁻¹.

B21 had a Kd of 1.1 nM, a koff of 0.00029 s⁻¹ and a kon of 270000 M⁻¹ s⁻¹.

As for B22, the Kd is 0.93 nM, the koff stood at 0.00028 s⁻¹ and the kon is 330000 M⁻¹ s⁻¹.

B23 yielded a Kd of 1.7 nM, a koff of 0.00051 s⁻¹ and a kon of 330000 M⁻¹ s⁻¹.

B24: the Kd was 5.7 nM, the koff is 0.0013 s⁻¹ and the kon turned out to be 240000 M⁻¹ s⁻¹.

As to B25, the Kd was determined as 1.5 nM, the koff is 0.00032 s⁻¹ and the kon turned out to be 210000 M⁻¹ s⁻¹.

The target of another assay is T2, Cyno TROP2. The assay is described as follows: not stated; bivalent format.
B1 returned a Kd of 2.7 nM, a koff of 0.00073 s⁻¹ and a kon of 270000 M⁻¹ s⁻¹.

Turning to B2, the Kd was 14 nM, the koff was 0.0027 s⁻¹ and the kon worked out at 190000 M⁻¹ s⁻¹.

B3 returned a Kd of 8.6 nM, a koff of 0.002 s⁻¹ and a kon of 230000 M⁻¹ s⁻¹.

In turn, B4 displayed a Kd of 6.2 nM, a koff of 0.0015 s⁻¹ and a kon of 250000 M⁻¹ s⁻¹.

Molecule B5 registered a Kd of 1.7 nM, a koff of 0.00059 s⁻¹ and a kon of 340000 M⁻¹ s⁻¹.

On to B6, for which the Kd was determined as 9.4 nM, the koff worked out at 0.0021 s⁻¹ and the kon came to 220000 M⁻¹ s⁻¹.

B7 showed a Kd of 2.5 nM, a koff of 0.00067 s⁻¹ and a kon of 270000 M⁻¹ s⁻¹.

As for B8, the Kd came out at 1.5 nM, the koff is 0.00042 s⁻¹ and the kon was found to be 290000 M⁻¹ s⁻¹.

The molecule B9 came in with a Kd of 1.1 nM, a koff of 0.00038 s⁻¹ and a kon of 360000 M⁻¹ s⁻¹.

On to B10, for which the Kd turned out to be 11 nM, the koff amounted to 0.0026 s⁻¹ and the kon worked out at 230000 M⁻¹ s⁻¹.

B11 had a Kd of 1.4 nM, a koff of 0.00046 s⁻¹ and a kon of 320000 M⁻¹ s⁻¹.

The molecule B12 had a Kd of 3.7 nM, a koff of 0.0013 s⁻¹ and a kon of 360000 M⁻¹ s⁻¹.

Turning to B13, the Kd turned out to be 0.93 nM, the koff was 0.00034 s⁻¹ and the kon worked out at 370000 M⁻¹ s⁻¹.

For the molecule B14, the Kd was 5.1 nM, the koff came out at 0.0016 s⁻¹ and the kon worked out at 310000 M⁻¹ s⁻¹.

On to B15, for which the Kd came to 4.5 nM, the koff is 0.0014 s⁻¹ and the kon is 320000 M⁻¹ s⁻¹.

B16 returned a Kd of 0.81 nM, a koff of 0.00028 s⁻¹ and a kon of 350000 M⁻¹ s⁻¹.

Molecule B17 displayed a Kd of 2.8 nM, a koff of 0.00077 s⁻¹ and a kon of 280000 M⁻¹ s⁻¹.

Take B18: the Kd came out at 2.6 nM, the koff turned out to be 0.00079 s⁻¹ and the kon was 300000 M⁻¹ s⁻¹.

Molecule B19 returned a Kd of 3.1 nM, a koff of 0.00077 s⁻¹ and a kon of 250000 M⁻¹ s⁻¹.

B20 returned a Kd of 0.7 nM, a koff of 0.00028 s⁻¹ and a kon of 400000 M⁻¹ s⁻¹.

On to B21, for which the Kd worked out at 1.5 nM, the koff amounted to 0.00047 s⁻¹ and the kon was determined as 310000 M⁻¹ s⁻¹.

In turn, B22 came in with a Kd of 1.2 nM, an off-rate constant (koff) of 0.00047 s⁻¹ and a kon of 390000 M⁻¹ s⁻¹.

Molecule B23 yielded a Kd of 2.8 nM, a koff of 0.00084 s⁻¹ and a kon of 300000 M⁻¹ s⁻¹.

Regarding B24, the Kd is 11 nM, the koff is 0.0026 s⁻¹ and the kon came to 250000 M⁻¹ s⁻¹.

B25 returned a Kd of 0.81 nM, a koff of 0.00031 s⁻¹ and a kon of 390000 M⁻¹ s⁻¹.
